Source: paper PMC4431499

Target: T1, PTK7 (on intact CCRF-CEM cells) (human (CCRF-CEM, T cell acute lymphoblastic leukemia)) (UniProt Q13308)
T1 sequence: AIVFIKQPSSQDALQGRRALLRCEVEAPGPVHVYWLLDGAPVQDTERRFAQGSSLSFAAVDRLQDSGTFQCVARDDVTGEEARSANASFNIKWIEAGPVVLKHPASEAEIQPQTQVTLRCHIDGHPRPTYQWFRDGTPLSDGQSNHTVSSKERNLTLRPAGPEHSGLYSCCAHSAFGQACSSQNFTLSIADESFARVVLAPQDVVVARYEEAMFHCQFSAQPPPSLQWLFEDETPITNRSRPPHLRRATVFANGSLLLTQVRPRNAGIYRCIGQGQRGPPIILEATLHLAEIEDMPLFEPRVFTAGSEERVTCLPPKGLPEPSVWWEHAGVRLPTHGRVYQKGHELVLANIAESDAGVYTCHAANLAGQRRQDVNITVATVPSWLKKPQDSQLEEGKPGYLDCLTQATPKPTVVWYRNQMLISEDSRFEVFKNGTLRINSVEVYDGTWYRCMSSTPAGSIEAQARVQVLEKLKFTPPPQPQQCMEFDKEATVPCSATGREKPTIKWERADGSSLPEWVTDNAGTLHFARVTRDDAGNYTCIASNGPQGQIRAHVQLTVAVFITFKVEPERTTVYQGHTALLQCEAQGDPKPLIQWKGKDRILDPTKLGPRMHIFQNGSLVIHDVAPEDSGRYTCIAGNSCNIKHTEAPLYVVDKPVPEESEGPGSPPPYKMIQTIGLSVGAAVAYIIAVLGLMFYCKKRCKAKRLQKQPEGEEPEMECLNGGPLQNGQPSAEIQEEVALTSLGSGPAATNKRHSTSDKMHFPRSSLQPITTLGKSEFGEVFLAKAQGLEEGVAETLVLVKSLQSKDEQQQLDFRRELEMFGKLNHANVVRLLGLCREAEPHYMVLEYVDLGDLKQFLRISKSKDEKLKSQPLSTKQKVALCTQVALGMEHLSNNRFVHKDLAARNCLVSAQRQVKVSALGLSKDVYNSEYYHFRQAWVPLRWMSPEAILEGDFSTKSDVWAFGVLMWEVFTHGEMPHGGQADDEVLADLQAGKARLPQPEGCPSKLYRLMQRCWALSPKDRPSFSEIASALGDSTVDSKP
Assay: flow cytometry, CCRF-CEM cells
Conditions: apparent Kd on cells, 1x PBS, 0.55 mM MgCl2, pH 7.4, 200 uL, 1e5 cells, 30 min in the dark at room temperature (Methods; Results say on ice)

ATCTAACTGCTGCGCCGCCGGGAAAATACTGTACGGTTAGA [free sgc8]
Kd: 2.95 nM

TATGTCTCGAGTATTTTTATCTAACTGCTGCGCCGCCGGGAAAATACTGTACGGTTAGA / GACCGATGGATGACCTGTCTGCCTAATGTGCGTCGTAAG / GACCGATGGATGACTTACGACGCACAAGGAGATCATGAG / GACCGATGGATGACTCATGATCTCCTTTAGGCAGACAGG / GAAGCCACTCTGACCTGTCTGCCTAATGTGCGTCGTAAG / GAAGCCACTCTGACTTACGACGCACAAGGAGATCATGAG / TCATCCATCGGTCCTCATGATCTCCTTTAGGCAGACAGG / GACACACTGAGGTCCTGTCTGCCTAATGTGCGTCGTAAG / GACACACTGAGGTCTTACGACGCACAAGGAGATCATGAG / TCAGAGTGGCTTCCTCATGATCTCCTTTAGGCAGACAGG / TACTCGAGACATACCTGTCTGCCTAATGTGCGTCGTAAG / TACTCGAGACATACTTACGACGCACAAGGAGATCATGAG / ACCTCAGTGTGTCCTCATGATCTCCTTTAGGCAGACAGG [G3-sgc8 DNA dendrimer]
Kd (multivalent): 0.07 nM
